The results in this text go back to publication PMC5529482, “Novel strategies to mimic transmembrane tumor necrosis factor-dependent activation of tumor necrosis factor receptor 2” (Scientific Reports, 2017).

For this assay, the target named is T1, mouse TNFR2-Fc fusion protein (mouse, UniProt P25119 23-258).
T1 construct: mouse TNF receptor 2 (TNFR2)
T1 sequence (looked up): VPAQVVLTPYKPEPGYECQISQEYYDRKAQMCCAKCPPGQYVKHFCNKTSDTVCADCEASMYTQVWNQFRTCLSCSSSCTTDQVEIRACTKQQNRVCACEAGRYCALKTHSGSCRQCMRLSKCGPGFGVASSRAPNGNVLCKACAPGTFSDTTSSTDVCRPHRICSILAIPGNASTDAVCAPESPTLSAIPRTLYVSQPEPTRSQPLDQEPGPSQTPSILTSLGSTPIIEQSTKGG
Put plainly: ELISA; TNFR1-Fc or TNFR2-Fc coated at 1 µg/ml in PBS, 4 °C overnight; TNF muteins in 2% skim milk powder in PBS, 1 h RT; detected with anti-TNF clone F6C5 and HRP anti-mouse IgG. Particulars: both partners purified.

B1: GCN4-sc-mTNFR2 (ligand)
chain: not shown
As for B1, a half-maximal response (EC50) required 0.045 nM.
